Data published in patent publication US20220033520A1.

Legend:
[1] = target: human FcRn complex (FCGRT and beta-2 microglobulin), recombinant, purified (human) (UniProt P55899); experiment: SPR, protein L capture, pH 6, kinetic
[2] = target: murine FcRn complex (Fcgrt and beta-2 microglobulin), recombinant (mouse) (UniProt Q61559); experiment: binding to mFcRn at pH 6.0 (FIG. 2D)
[3] = target: murine FcRn complex (Fcgrt and beta-2 microglobulin), recombinant (mouse) (UniProt Q61559); experiment: binding to mFcRn at pH 7.4 (FIG. 2D)
[4] = target: human FcRn (FCGRT and beta-2 microglobulin) expressed on MDCK II cells (human) (UniProt P55899); experiment: cell-based or functional assay
[5] = target: human FcRn complex (FCGRT and beta-2 microglobulin), recombinant, purified (human) (UniProt P55899); experiment: SPR, anti-human Fab capture, pH 7.4, steady state
[6] = target: human FcRn complex (FCGRT and beta-2 microglobulin), recombinant, purified (human) (UniProt P55899); experiment: SPR, protein L capture, pH 7.4, steady state
[7] = target: human FcRn complex (FCGRT and beta-2 microglobulin), recombinant, purified (human) (UniProt P55899); experiment: SPR, anti-human Fab capture, pH 6, steady state

Sequence of murine FcRn complex (Fcgrt and beta-2 microglobulin), recombinant (mouse) (Q61559 22-297, one chain of several): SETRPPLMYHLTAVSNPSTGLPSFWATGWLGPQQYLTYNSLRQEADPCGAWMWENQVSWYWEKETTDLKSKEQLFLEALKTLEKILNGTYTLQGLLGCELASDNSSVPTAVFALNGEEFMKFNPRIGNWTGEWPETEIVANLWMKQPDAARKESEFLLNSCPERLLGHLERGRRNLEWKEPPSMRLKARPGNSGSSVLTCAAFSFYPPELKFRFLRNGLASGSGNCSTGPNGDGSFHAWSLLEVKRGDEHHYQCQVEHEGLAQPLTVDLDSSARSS

| Substance | Kd [1] [nM] | koff [1] [s⁻¹] | kon [1] [M⁻¹ s⁻¹] | fold improvement of binding over wild-type hIgG1 [2] [fold] | fold improvement of binding over wild-type hIgG1 [3] [fold] | Transcytosis Normalized to WT (normalized to WT) [4] | Kd [5] [nM] | Kd [6] [nM] | Kd [7] [nM] |
| --- | --- | --- | --- | --- | --- | --- | --- | --- | --- |
| anti-BACE1 hIgG1 antibody, Fc modification Q7 (M252Y/Q311A/N434Y/Y436I) | 6 | 0.00529 | 920000 |  |  | 108 | 269 | 295 | 7.3 |
| anti-BACE1 hIgG1 antibody, Fc modification Q1 (M252Y/T307Q/Q311I/N434Y) | 4.69 | 0.00349 | 743000 |  |  | 132 | 157 | 197 | 6.6 |
| anti-BACE1 hIgG4 antibody, Fc modification Q3-IgG4 (M252Y/T307Q/N434Y/Y436I) | 3.87 |  |  |  |  | 87 | 124 |  | 4.8 |
| anti-BACE1 hIgG1 antibody, Fc modification Q6 (M252Y/M428L/N434Y/Y436I) | 7.72 | 0.00494 | 639000 |  |  | 155 | 194 | 380 | 8.9 |
| anti-BACE1 hIgG4 antibody, Fc modification Q1-IgG4 (M252Y/T307Q/Q311I/N434Y) | 5.22 |  |  |  |  | 82 | 120 | 114 | 5.2 |
| anti-Abeta hIgG1 antibody, Fc modification Q2 (M252Y/T307Q/M428L/N434Y) |  |  |  |  |  |  | 482 |  | 10.2 |
| anti-BACE1 hIgG1 antibody, Fc modification Q95 (M252Y/T307Q/Q311A/N434Y) | 7.35 | 0.00608 | 828000 |  |  | 100 | 240 | 228 | 6.9 |

The remaining lines, values ahead:

| Kd [1] [nM] | koff [1] [s⁻¹] | kon [1] [M⁻¹ s⁻¹] | fold improvement of binding over wild-type hIgG1 [2] [fold] | fold improvement of binding over wild-type hIgG1 [3] [fold] | Transcytosis Normalized to WT (normalized to WT) [4] | Kd [5] [nM] | Kd [6] [nM] | Kd [7] [nM] | Substance |
| --- | --- | --- | --- | --- | --- | --- | --- | --- | --- |
| 154 | 0.0635 | 414000 | 10 | 10 | 1.9 |  |  |  | hIgG1 antibody comprising modified Fc M252Y/S254T/T256E (YTE) |
| 11.1 | 0.00648 | 582000 |  |  | 155 | 211 | 663 | 8.7 | anti-BACE1 hIgG1 antibody, Fc modification Q2 (M252Y/T307Q/M428L/N434Y) |
| 28.7 | 0.0264 | 919000 |  |  | 79 | 1010 | 963 | 13 | anti-BACE1 hIgG1 antibody, Fc modification D1 (M252Y/N434Y) |
|  |  |  |  |  | 137 | 170 | 202 | 6.5 | anti-BACE1 hIgG1 antibody, Fc modification Q3 (M252Y/T307Q/N434Y/Y436I) |
| 13.4 | 0.0135 | 1.01e+06 |  |  | 95 | 230 | 322 | 7.4 | anti-BACE1 hIgG4 antibody, Fc modification Q5-IgG4 (M252Y/Q311I/N434Y/Y436I) |
|  |  |  |  |  |  | 521 |  | 10.1 | anti-Abeta hIgG1 antibody, Fc modification T94 (M252Y/N286E/N434Y) |
| 14 |  |  |  |  | 137 | 307 |  | 9.1 | anti-BACE1 hIgG1 antibody, Fc modification T3 (M252Y/Q311I/N434Y) |
|  |  |  |  |  |  | 292 |  | 8.2 | anti-Abeta hIgG1 antibody, Fc modification Q7 (M252Y/Q311A/N434Y/Y436I) |
